Measured values: PMC3713010, “Sox2 Transcriptionally Regulates Pqbp1, an Intellectual Disability-Microcephaly Causative Gene, in Neural Stem Progenitor Cells”

T1: Oct6 DNA-binding domain (BD-Oct6) (Mus musculus (B6), UniProt P21952 317-416)
T1 sequence: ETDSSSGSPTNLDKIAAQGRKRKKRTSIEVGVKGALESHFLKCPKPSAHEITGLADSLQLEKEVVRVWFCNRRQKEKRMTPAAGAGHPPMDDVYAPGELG

T2: Brn2 DNA-binding domain (BD-Brn2) (Mus musculus (B6), UniProt P31360 336-435)
T2 sequence: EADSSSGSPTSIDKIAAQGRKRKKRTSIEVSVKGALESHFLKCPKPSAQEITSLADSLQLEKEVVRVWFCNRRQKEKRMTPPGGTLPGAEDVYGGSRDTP

B1: 92 (dsDNA)
DNA 1: GGGGGATATAATAATAAATCTTTAAAACAAAAAAAAAAACCCCC
DNA 2: GGGGGTTTTTTTTTTTGTTTTAAAGATTTATTATTATATCCCCC
B2: 99 (dsDNA)
DNA 1: GGGGGATATAACAAGATAATCATTGTTTTGAATATTCCAAGGATTTCCCCC
DNA 2: GGGGGAAATCCTTGGAATATTCAAAACAATGATTATCTTGTTATATCCCCC
B3: 97 (dsDNA)
DNA 1: GGGGGTAGATGCTACAAAAGATACTGATTAAAACCCAAATGCCCCC
DNA 2: GGGGGCATTTGGGTTTTAATCAGTATCTTTTGTAGCATCTACCCCC
B4: 96 (dsDNA)
DNA 1: GGGGGACATAGACACAAATAGCAGACAATGACCTTGACCCCC
DNA 2: GGGGGTCAAGGTCATTGTCTGCTATTTGTGTCTATGTCCCCC
B5: 98 (dsDNA)
DNA 1: GGGGGTTATGAATACAATTCATTATAACCATGGATCCCCC
DNA 2: GGGGGATCCATGGTTATAATGAATTGTATTCATAACCCCC
B6: 95 (dsDNA)
DNA 1: GGGGGGGTTTTCTTTTGTACACTTAATATCCGCTGGGGCCCCC
DNA 2: GGGGGCCCCAGCGGATATTAAGTGTACAAAAGAAAACCCCCCC
B7: 91 (dsDNA)
DNA 1: GGGGGTTTGTTTGTTTGTTTTTAAAAATAAGGTCTCGGGCCCCC
DNA 2: GGGGGCCCGAGACCTTATTTTTAAAAACAAACAAACAAACCCCC
B8: 93 (dsDNA)
DNA 1: GGGGGATAGAGGCACAAAAATTTCCAGAGACTGGCCCCC
DNA 2: GGGGGCCAGTCTCTGGAAATTTTTGTGCCTCTATCCCCC
B9: 94 (dsDNA)
DNA 1: GGGGGATCTGTAAAGGAAATTACTTTGTAGGAAATTTGATGGAACTGCCCCC
DNA 2: GGGGGCAGTTCCATCAAATTTCCTACAAAGTAATTTCCTTTACAGATCCCCC

Assays:
Assay in all cases: EMSA; 10% glycerol, 20 mM HEPES pH 7.8, 45 mM KCl, 10 mM NaCl, 1 mM EDTA, 1 mM DTT, 0.2 ug/uL BSA, 0.1% NP-40, 50 ng poly-dIdC; 20 ng each GST protein; room temperature 30 min (heterodimers 4 C); 6% PAGE 0.25x TBE
Details in all cases: protein: recombinant; tags: GST (N-terminal, pGEX-6P-1); label: 32P-dCTP fill-in of the 5' (dG)5 overhangs of both strands (Methods; control probes are given with GGG)
[1] = molecular target: Pax6 DNA-binding domain (BD-Pax6) (Mus musculus (B6), UniProt P63015 190-289)
Method in brief: (§1)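 DNA binding of transcription factor DNA-binding domains to candidate cis-elements was read from band radioactivity in the expected shift region. The GST-tagged domains came from E. coli BL21 via glutathione-sepharose; probes were annealed oligonucleotides labelled with 32P-dCTP. Each assay used 20 ng protein, 40,000–50,000 cpm probe and 50 ng poly-dIdC for 30 min at room temperature, followed by 6% polyacrylamide electrophoresis in 0.25×TBE at 4°C.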

[2] = molecular target: T1, Oct6 DNA-binding domain (BD-Oct6)
Method in brief: as §1

[3] = molecular target: T2, Brn2 DNA-binding domain (BD-Brn2)
Method in brief: as §1

Chain of Pax6 DNA-binding domain (BD-Pax6) (P63015 190-289): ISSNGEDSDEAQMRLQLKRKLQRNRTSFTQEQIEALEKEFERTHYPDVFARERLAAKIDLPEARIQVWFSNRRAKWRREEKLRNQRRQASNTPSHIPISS

| Binder | binding result [1] | binding result [2] | binding result [3] |
| --- | --- | --- | --- |
| B1 | binds | binds | binds |
| B2 | binds | binds | binds |
| B3 | binds | binds | binds |
| B4 | no binding | no binding | no binding |
| B5 | no binding | binds | binds |
| B6 | binds | binds | no binding |
| B7 | binds | binds | no binding |
| B8 | no binding | no binding | no binding |
| B9 | binds | binds | binds |
